Where a chain is given by its changes, count along the chain named.
T1: human TGFβ2 (human, UniProt P61812 303-414)
T1 construct: also called TGFβ2 homodimer
T1 sequence: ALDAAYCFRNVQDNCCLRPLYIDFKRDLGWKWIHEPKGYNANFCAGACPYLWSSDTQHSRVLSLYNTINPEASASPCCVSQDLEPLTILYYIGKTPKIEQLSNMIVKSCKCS

T2: human TGFβ3 (human, UniProt P10600 301-412)
T2 sequence: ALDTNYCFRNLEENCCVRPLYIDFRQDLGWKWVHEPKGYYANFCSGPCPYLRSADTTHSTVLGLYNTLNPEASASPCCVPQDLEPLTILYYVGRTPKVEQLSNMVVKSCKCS

B1: D56R (antibody, V domains shown)
VH: QVQLVQSGAEVKKPGSSVKVSCKASGYTFSSNVISWVRQAPGQGLEWMGGVIPIVRIANYAQRFKGRVTITADESTSTTYMELSSLRSEDTAVYYCASTLGLVLDAMDYWGQGTLVTVSS
VL: ETVLTQSPGTLSLSPGERATLSCRASQSLGSSYLAWYQQKPGQAPRLLIYGASSRAPGIPDRFSGSGSGTDFTLTISRLEPEDFAVYYCQQYADSPITFGQGTRLEIK
notes: GC1008 IgG4 variant
B2: Y27M (antibody, V domains shown)
VH: B1 VH with Y27M, R56D
VL: B1 VL
notes: GC1008 IgG4 variant
B3: E74W (antibody, V domains shown)
VH: B1 VH with R56D, E74W
VL: B1 VL
notes: GC1008 IgG4 variant
B4: Y27T (antibody, V domains shown)
VH: B1 VH with Y27T, R56D
VL: B1 VL
notes: GC1008 IgG4 variant
B5: I54T (antibody, V domains shown)
VH: B1 VH with I54T, R56D
VL: B1 VL
notes: GC1008 IgG4 variant
B6: I54F (antibody, V domains shown)
VH: B1 VH with I54F, R56D
VL: B1 VL
notes: GC1008 IgG4 variant
B7: Y27G (antibody, V domains shown)
VH: B1 VH with Y27G, R56D
VL: B1 VL
notes: GC1008 IgG4 variant
B8: Y27W (antibody, V domains shown)
VH: B1 VH with Y27W, R56D
VL: B1 VL
notes: GC1008 IgG4 variant
B9: Y27P (antibody, V domains shown)
VH: B1 VH with Y27P, R56D
VL: B1 VL
notes: GC1008 IgG4 variant
B10: Y27L (antibody, V domains shown)
VH: B1 VH with Y27L, R56D
VL: B1 VL
notes: GC1008 IgG4 variant
B11: Y27Q (antibody, V domains shown)
VH: B1 VH with Y27Q, R56D
VL: B1 VL
notes: GC1008 IgG4 variant
B12: Y27V (antibody, V domains shown)
VH: B1 VH with Y27V, R56D
VL: B1 VL
notes: GC1008 IgG4 variant
B13: Y27F (antibody, V domains shown)
VH: B1 VH with Y27F, R56D
VL: B1 VL
notes: GC1008 IgG4 variant
B14: Y27R (antibody, V domains shown)
VH: B1 VH with Y27R, R56D
VL: B1 VL
notes: GC1008 IgG4 variant
B15: I52L (antibody, V domains shown)
VH: B1 VH with I52L, R56D
VL: B1 VL
notes: GC1008 IgG4 variant
B16: Y27S (antibody, V domains shown)
VH: B1 VH with Y27S, R56D
VL: B1 VL
notes: GC1008 IgG4 variant
B17: E74R (antibody, V domains shown)
VH: B1 VH with R56D, E74R
VL: B1 VL
notes: GC1008 IgG4 variant
B18: E74L (antibody, V domains shown)
VH: B1 VH with R56D, E74L
VL: B1 VL
notes: GC1008 IgG4 variant
B19: Y27I (antibody, V domains shown)
VH: B1 VH with Y27I, R56D
VL: B1 VL
notes: GC1008 IgG4 variant
B20: Y27N (antibody, V domains shown)
VH: B1 VH with Y27N, R56D
VL: B1 VL
notes: GC1008 IgG4 variant
B21: Y27K (antibody, V domains shown)
VH: B1 VH with Y27K, R56D
VL: B1 VL
notes: GC1008 IgG4 variant

Tests used:
human TGFβ2 [1] = target: T1, human TGFβ2; test: Biacore, 3.33-90 nM, 1:1 global fit, vs wt GC1008
Method: (§1) In FIG. 6C, seventeen mutants were selected and scaled up to produce sufficient amount of purified protein for KD (equilibrium constant=kd/ka) analysis by Biacore. Multiple concentrations (90, 30, 10 and 3.33 nM) were used in duplicate on the 150 RU level TGFβ1, 2, and 3 immobilized surfaces. KD was calculated using global curve fitting analysis for a 1-to-1 Langmuir binding model. The experimental data from all four concentrations were used for calculation except for I54N and I54R mutants, where only the top 2 concentrations were used. The fold changes in KD were compared to the fold changes in kd (off rate) presented in FIG. 6B, and a heat map was generated for visualization. Similar fold changes were observed from the two data sets, confirming the validity of using kd as a parameter for screening of 155 single mutants as shown in FIG. 6B.

human TGFβ1 [2] = target: T3, human TGFβ1 (human, UniProt P01137 279-390); test: Biacore, 3.33-90 nM, 1:1 global fit, vs wt GC1008
T3 construct: also called TGFβ1 homodimer
Method: as §1

human TGFβ3 [3] = target: T2, human TGFβ3; test: Biacore, 3.33-90 nM, 1:1 global fit, vs wt GC1008
Method: as §1

human TGFβ2 [4] = target: T1, human TGFβ2; test: Biacore off-rate vs wt GC1008
Description: (§2) Plasmids encoding either the GC1008 heavy chain or light chain were used as a template in PCR-based mutagenesis reactions. Mutations to the encoding DNA were made to create 155 single amino acid substitutions of the encoded heavy chain amino acid sequence and one single amino acid substitution of the encoded light chain amino acid sequence. A QuikChange® Lightning Site-Directed Mutagenesis kit (Agilent Technologies, Santa Clara Calif.) was used according to the manufacturer's instructions to create DNA mutations using a set of forward and reverse primers, either designed for a specific amino acid or for all 20 amino acids with a degenerate codon (NNK). After sequencing confirmation, identified mutant DNA was paired with a wild-type light or heavy chain DNA for transfection into an Expi293F™ host cell suspension (Life Techonologies Corp., Grand Island, N.Y.). At 4 days post-transfection, conditioned media (1 mL) was harvested and purified using a 1 mL Protein A PhyTip® column (PhyNexus, Inc., San Jose, Calif.) and a PureSpeed™ 12-channel pipette (Rainin Instrument LLC, Oakland, Calif.). Purified variant antibody samples were analyzed in duplicate on a Biacore® 3000 (GE Healthcare) at 50 nM concentrations, using the 100 RU level TGFβ1, 2, and 3 immobilized surfaces. The off-rate (kd) of the variants was divided by the kd of the wild-type control to obtain the fold change in the kd. […] A heat map was generated to visualize the results. Variants that completely lost affinity for TGFβ were shown in red without numbers.

human TGFβ1 [5] = target: T3, human TGFβ1; test: Biacore off-rate vs wt GC1008
Description: as §2

human TGFβ3 [6] = target: T2, human TGFβ3; test: Biacore off-rate vs wt GC1008
Description: as §2

human TGFβ2 [7] = target: T1, human TGFβ2; test: Biacore off-rate vs wt GC1008, 50 nM
Summary of the method: (§3)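 Surface plasmon resonance on a Biacore 3000 measured how fast purified antibody variants dissociated from TGFβ isoforms immobilized at about 100 RU. Variants carried single heavy- or light-chain substitutions and were produced by transient Expi293F transfection with Protein A cleanup. Samples at 50 nM were tested in duplicate, and each variant kd was divided by the wild-type control kd to give fold change.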

human TGFβ1 [8] = target: T3, human TGFβ1; test: Biacore off-rate vs wt GC1008, 50 nM
Summary of the method: as §3

human TGFβ3 [9] = target: T2, human TGFβ3; test: Biacore off-rate vs wt GC1008, 50 nM
Summary of the method: as §3

T3 sequence (P01137 279-390 limits assumed): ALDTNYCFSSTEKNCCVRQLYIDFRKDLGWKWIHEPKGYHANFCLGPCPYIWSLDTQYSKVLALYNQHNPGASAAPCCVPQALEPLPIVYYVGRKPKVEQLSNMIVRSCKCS

Row | Binder | KD mutant/KD wt (human TGFβ2 [1]) | KD mutant/KD wt (human TGFβ1 [2]) | KD mutant/KD wt (human TGFβ3 [3]) | kd mutant/kd wt (human TGFβ2 [4]) | kd mutant/kd wt (human TGFβ1 [5]) | kd mutant/kd wt (human TGFβ3 [6]) | kd var/kd wt (human TGFβ2 [7]) | kd var/kd wt (human TGFβ1 [8]) | kd var/kd wt (human TGFβ3 [9])
1 | B1 | 0.6 | 1 | 0.6 | 0.8 | 1 | 0.7 | 0.8 | 1 | 0.7
2 | B2 | – | – | – | – | – | – | 1.4 | 1.3 | 1.3
3 | B3 | 0.5 | 0.9 | 0.6 | 0.3 | 0.8 | 0.3 | 0.3 | 0.8 | 0.3
4 | B4 | – | – | – | – | – | – | 1.4 | 1.4 | 1.5
5 | B5 | 2.1 | 2.1 | 3.2 | 1.3 | 2.1 | 1.7 | 1.3 | 2.1 | 1.7
6 | B6 | 0.6 | 1.3 | 1.2 | 0.7 | 1.3 | 1.2 | 0.7 | 1.3 | 1.2
7 | B7 | – | – | – | – | – | – | 1.4 | 1.5 | 1.3
8 | B8 | – | – | – | – | – | – | 1.3 | 1.4 | 1.4
9 | B9 | – | – | – | – | – | – | 1.4 | 1.7 | 1.4
10 | B10 | – | – | – | – | – | – | 1.4 | 1.4 | 1.1
11 | B11 | – | – | – | – | – | – | 1.4 | 1.5 | 1.4
12 | B12 | – | – | – | – | – | – | 1.6 | 1.7 | 1.5
13 | B13 | – | – | – | – | – | – | 1.2 | 1.3 | 1.1
14 | B14 | – | – | – | – | – | – | 1.5 | 2.3 | 1.7
15 | B15 | 2.4 | 4.1 | 2.6 | 1.4 | 3 | 1.6 | 1.4 | 3 | 1.6
16 | B16 | – | – | – | – | – | – | 1.5 | 1.6 | 1.6
17 | B17 | 1.3 | 2.1 | 0.8 | 1 | 2 | 0.7 | 1 | 2 | 0.7
18 | B18 | 0.7 | 0.9 | 0.3 | 0.6 | 0.8 | 0.1 | 0.6 | 0.8 | 0.1
19 | B19 | – | – | – | – | – | – | 1.3 | 1.3 | 1.1
20 | B20 | – | – | – | – | – | – | 1.3 | 1.3 | 1.3
21 | B21 | – | – | – | – | – | – | 1.4 | 1.9 | 1.3

From patent publication US20170342144A1 (Sanofi, published 2017)
